Our source for the Kd and EC50 values is US20210371503A1 (UNIVERSITY OF COLOGNE, published 2021).

Assay [1] concerns the target T1, prefusion stabilized SARS-CoV-2 S ectodomain (SARS-CoV-2, UniProt P0DTC2 14-1208).
T1 construct: also called SARS-CoV-2 spike ectodomain; ectodomain of the spike (S) homotrimer of SARS-CoV-2
Description: assay not stated; row Binding Affinity Spike Trimer, construct not given.

Assay [2] addresses T1, prefusion stabilized SARS-CoV-2 S …. Description: ELISA, coated S ectodomain [cont'd]. (In general: An ELISA detects its analyte on a solid surface through an enzyme-linked reagent.)

B1: DZIF-10c (antibody, V domains shown)
VH: QVQLVESGGGVVQPGRSLRLSCAATGFTFRRYGMHWVRQAPGKGLEWVAGILFDGSNKYYVDSVKGRFTISRDSSRNTLYLQLNSLRREDTAVYYCAKGGDYEWELLESWGQGTLVTVSS
VL: DIQMTQSPSTVSASVGDRVTITCRASQSIDNWLAWYQEKPGKAPKVLIYKASSLESGVPSRFSGRGSGTEFTLTISSLQPGDFATYYCQHYHSFPLTFGGGTKVDIKR
notes: also called HbnC3t1p1_F4(-K); EX14870
In the case of B1, binding in assay [1] was characterised by a dissociation constant (Kd) of 0.65 nM.

B2: MnC4t2p2_A4 (antibody, V domains shown)
VH: QVQLVQSGSELKKPGASVKISCKASGYIFINYAMNWVRQAPGQGLEWMGWINTNTGNPTYAQDFTGRFVFSLDTSLSTAYLQISSLEAEDTAVYYCAKIGSRNSLGVWGQGTLVTVSA
VL: EIVLTQSPGTLSLSPGERATLSCRASHSVDRSYLAWYQQKPGLAPRLLIYGASSRATGIPDRFSGSGSGTDFTLTISRLEPEDFALYYCQHFGTSSVTFGRGTRLEIK
For B2, a half-maximal effect in assay [2] (EC50) was put at 0.02 µg/mL.
